Data: the supplement of paper PMC9170038

System: K4 kissing-loop RNA reporter
Test: apparent KD of K4 kissing-loop reporter; higher = weaker reporter binding
Conditions: Eterna round: R107
Protocol: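 RNA-MaP round R107: designed RNA switches with theophylline, tryptophan, arginine or FMN aptamers are transcribed on-chip within common flanks. They are titrated with a labelled K4 kissing-loop RNA reporter in RNA-MaP buffer (100 mM Tris pH 7.5, 80 mM KCl, 4 mM MgCl2), without ligand or with the indicated ligand. Median apparent KD per design.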

[1] = input ligand: theophylline 20 uM
[2] = input ligand: tryptophan 2.4 mM
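Also: bound reporter read as fluorescence of individual clusters on recovered sequencing chips by microscopy, with normalized cluster intensities fitted with a binding model.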

| Sequence | apparent KD of K4 kissing-loop reporter (input ligand: FMN 200 uM) | apparent KD of K4 kissing-loop reporter (input ligand: arginine 13.2 mM) | apparent KD of K4 kissing-loop reporter (input ligand: none) | apparent KD of K4 kissing-loop reporter [1] | apparent KD of K4 kissing-loop reporter [2] |
| --- | --- | --- | --- | --- | --- |
| UUAAUUCCGGUGGUGUGUAGAACACAGUUACGAGGACCGGUACGGCCGCCACUCGGAUGCACUUUCAGUGAUGUUGAAAGCAUCA [Same State Tryptophan A GF 1] | 670 nM | 514 nM | 643 nM | 498 nM | 690 nM |
| UUACGAGUGAUGUUCGAAUAAAUCCAUUCAGAGGAUAUAGUAUUAACUAGAAGGCUGAAACCAACUUCGAGUGAUGUUCGAGGAU [Same State FMN A GF 3] | 94.5 nM | 87.7 nM | 108 nM | 88.4 nM | 90.8 nM |
| UUACUGAGUGAUGUUUGGAAAUAUCCUAGGCAGGAUAUGCGGAAACGCAGAAGGGCCACCUUCUAGUGAAGGAAACUUCGCUAUU [Ex FMN A 4] | 536 nM | 284 nM | 423 nM | 397 nM | 379 nM |
| UUAGAAGUAUACUUCAAGAGGUAUGCUGAUACCAGAGUCAAUUGACUCCCUUGGCAGCGGAUCGAGUGAUGUUCGUAACCUCAUU [AK3.1 SS Theophylline A] | 160 nM | 238 nM | 209 nM | 246 nM | 141 nM |
| UUAGAGAUCUCAGGAUAUCAGUGAUGUUGGUGUGCAGAUCUGAGAUAGAAUUCUAUCUCAGAUCAAUGAGAAGGGAGAUCUCAUU [AK5 Exc FMN B] | 303 nM | 149 nM | 152 nM | 173 nM | 142 nM |
| UUAGCAGUAUACUGCAAGACCUAUACUGAUACCAGAGCCUAUAGGCUCCCUUGGCAGCGGAUCGAGUGAUGUUCGUAAGGUCAUU [AK4.3 SS Theophylline A] | 651 nM | 667 nM | 1080 nM | 682 nM | 458 nM |
| UUAUCAUCAGCGGCCGCCACUGCAAAUUGGAGUGAUGUUCCAAGCGUGGAUAUUGAAAUUACUAGUAGGACCGGGUUGAUGAAUU [AK 2 Ex Trypt B] | 158 nM | 132 nM | 158 nM | 105 nM | 159 nM |
| UUCAGGUGUUCGGCCGCCACUCCAGUGAUGUUGGAGUGGCUUCACAAGGGCCAGGACAAUGUAGGGAGGACCGGGAAUAUCGCAG [Atvebeance] | 143 nM | 117 nM | 129 nM | 107 nM | 125 nM |
| UUCGGAUAAGUCCUUCCGAAGAAGCCGGAAGGAGCGACUCAAUAGUCAGGUAGGUCGCCGGCAAGCGUAGUGAUGUUAUGCUCAC [Arg A SS t6] | 966 nM | 598 nM | 882 nM | 713 nM | 740 nM |
| UUCUACGAGUGAUGUUCGUAGUGUAUUCGCUAGGAUAUCGUUUUUUCGAGAAGGAGUGAUGAAGUGAUACGAAAGUAUCGCUUCU [FMN A 14] | 223 nM | 241 nM | 352 nM | 411 nM | 292 nM |
| UUCUUGAUGGAAACAUCGAGGAUUACUGAUACCAGUAUCGAUAGAUACCCUUGGCAGCAGAAUCAGUGAUCACGAGUGAUGUUCG [Ex Theophylline A K4 10] | 655 nM | 551 nM | 733 nM | 564 nM | 569 nM |
| UUGCCUCUGGCUGAUACCAGUGAUGCAGGGUAUGAAACAGGGAGUGAUGUUCCCUGCAGCCACCCUUGGCAGCAGUUUAAGUUUG [Exclusion Theophylline B GF 21] | 182 nM | 152 nM | 181 nM | 158 nM | 160 nM |
| UUGGUUGUCGUAGGAUAUGUAGGAUAUUCUAAAAUAUGAAGUGAUGUUUCUAUAAUAAGAAGAAGGACAGAAGGACGAUAACCAU [FmnBS 2 - Salish transfer #DoubleAptamer] | 84.7 nM | 100 nM | 111 nM | 103 nM | 99.1 nM |
| UUGUGCAGCAAACGAGUGAUGUUCGACGAUACCAGCCUCGAUAGAGGCCCUUGGCAGCGUAAUAAUCACAGCCAAGGGCUGCACU [#SwitchBubble 4] | 651 nM | 535 nM | 749 nM | 774 nM | 560 nM |
| UUGUUUGGUUGAGAGGUUGGGCGAGAUGAUACCAGUAUAGAAGAGUACCCUUGGCAGCAUAGGAGAGAUAUAGUGAUGUUGUAUG [SSTheophA.T] | 437 nM | 355 nM | 480 nM | 494 nM | 333 nM |
| UUUAAAUAUAGUGAUGUUAUAUAACAAUGACGAGGACCGGUACGGCCGCCACUCGAGAGAGAUAAUGGUCAUGCAAAUGUAUGUC [#15 K4 Tryptophan A Same State] | 674 nM | 684 nM | 789 nM | 746 nM | 615 nM |
| UUUCCAGAUAAGUGGGAACACUCCAUAACAGAGGAUAUCAGAGCGCUGAGAAGGCUGUUUUACAGUGAUGUUGUAAGUGUGGAGU [FMN A SS t2] | 153 nM | 249 nM | 283 nM | 304 nM | 253 nM |
| UUUGGAGUGGGAGGAUAUCCUAAUAUGGGUGAUGUUAGCGAUGUUGAAGGUGUAGUGAUGUUAUGCGGAGAAGGCCCAGUGUAGA [BDazzled - #18 - Exc. FMN B] | 166 nM | 146 nM | 245 nM | 273 nM | 221 nM |
